Results reported in patent US20110038869A1 (Genmab, published 2011).

T1: biotinylated CD32bECDHis (human, UniProt P31994 43-223, limits assumed, biotinylated (sites not given))
T1 sequence (looked up): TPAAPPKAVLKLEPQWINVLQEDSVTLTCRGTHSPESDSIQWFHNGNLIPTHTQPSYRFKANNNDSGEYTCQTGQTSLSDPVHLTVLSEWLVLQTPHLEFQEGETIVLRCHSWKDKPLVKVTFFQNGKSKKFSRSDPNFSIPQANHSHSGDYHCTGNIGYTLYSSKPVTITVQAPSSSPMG

T2: CD32bECDHis (human, UniProt P31994 43-223, limits assumed)
T2 construct: Produced in HEK-293F cells; also called extracellular domain of CD32b with C-terminal His tag; soluble CD32b
T2 sequence (looked up): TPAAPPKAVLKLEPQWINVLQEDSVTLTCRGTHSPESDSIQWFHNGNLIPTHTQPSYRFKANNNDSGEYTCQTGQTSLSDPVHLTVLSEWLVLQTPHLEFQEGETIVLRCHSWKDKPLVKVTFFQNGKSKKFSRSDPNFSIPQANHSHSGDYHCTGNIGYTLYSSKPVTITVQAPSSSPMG


What was measured:
biotinylated CD32bECDHis [1] = target: T1, biotinylated CD32bECDHis; test: competition ELISA, competitor 034
Procedure: (§1) ELISA wells were coated overnight at 4° C. with anti-CD32b HuMabs serially diluted in PBS. The ELISA wells were washed with PBS, blocked for one hour at room temperature with 2% (v/v) chicken serum (Gibco, Paisley, Scotland) in PBS and washed again with PBS. Subsequently, the immobilized antibodies were incubated with biotinylated CD32bECDHis serially diluted in PBSTC. After washing with PBS/Tween, bound biotinylated CD32bECDHis was incubated with Streptavidin-poly-HRP (Sanquin, Amsterdam, The Netherlands) for 1 hr at RT an the reaction was developed as described supra.
(§2) To this end, ELISA wells coated with anti-CD32b HuMabs were incubated in the presence of an excess of CD32b-specific antibody and the predetermined concentration of biotinylated CD32bECDHis in fluid phase. The reaction was developed as described.

CD32bECDHis [2] = target: T2, CD32bECDHis; test: ELISA on coated CD32bECDHis
Procedure: The specificity of the obtained anti-CD32b HuMabs was evaluated by ELISA. ELISA plates (Microlon; Greiner Bio-One) were coated overnight at 4° C. with 2 μg/ml of CD32aECDHis and CD32bECDHis in PBS, pH 7.4. Coated ELISA plates were washed with PBS, blocked for one hour at room temperature with 2% (v/v) chicken serum (Gibco, Paisley, Scotland) in PBS and washed again with PBS. Subsequently, HuMabs, serially diluted in PBSTC (PBS supplemented with 2% (v/v) chicken serum and 0.05% (v/v) Tween-20), were incubated for 1 hr at RT under shaking conditions (300 rpm). Bound HuMabs were detected using HRP-conjugated goat-anti-human IgG antibodies (Jackson ImmunoResearch Europe) diluted 1:10,000 in PBSTC, which were incubated for 1 hr at RT under shaking conditions (300 rpm). […] Binding curves were analyzed using non-linear regression (sigmoidal dose-response with variable slope) using GraphPad Prism V4.03 software.

biotinylated CD32bECDHis [3] = target: T1, biotinylated CD32bECDHis; test: competition ELISA, competitor 022
Procedure: as §1, §2

biotinylated CD32bECDHis [4] = target: T1, biotinylated CD32bECDHis; test: competition ELISA, competitor 2B6
Procedure: as §1, §2

biotinylated CD32bECDHis [5] = target: T1, biotinylated CD32bECDHis; test: competition ELISA, competitor 026
Procedure: as §1, §2

biotinylated CD32bECDHis [6] = target: T1, biotinylated CD32bECDHis; test: competition ELISA, competitor 024
Procedure: as §1, §2

biotinylated CD32bECDHis [7] = target: T1, biotinylated CD32bECDHis; test: competition ELISA, competitor 053
Procedure: as §1, §2

biotinylated CD32bECDHis [8] = target: T1, biotinylated CD32bECDHis; test: competition ELISA, competitor 020
Procedure: as §1, §2

CD32bECDHis [9] = target: T2, CD32bECDHis; test: SPR BIAcore 3000, antibody immobilized, CD32bECDHis analyte
Procedure: Antibody binding to CD32a and CD32b was analyzed by surface plasmon resonance in a BIAcore 3000 (GE Healthcare). CD32aECDHis and CD32bECDHis derived from HEK293 cells were used for the analysis. HuMab antibodies were immobilized on the CM-5 sensor chip according to the procedure recommended by the manufacturer. Briefly, after surface activation by EDC and NHS HuMab antibody was injected over the activated CM-5 surface in 10 mM sodium-acetate, pH ranging from 4.0 to 5.5 at 5 μl/min. followed by 1 M Ethanolamine for deactivation. Concentration series of CD32bECDHis in HBS-EP buffer were injected over the immobilized antibodies at a flow rate of 30 μl/min for 180 sec. Regeneration of the HuMab surface was performed by injection of 10 mM Glycine-HCl pH 2.0 or 10 mM sodium acetate pH 3.0. […] Kinetic analysis is performed using double reference subtraction and model 1:1 (langmuir) binding analysis. Specificity was studied by injecting CD32aECDHis at a concentration of […] over immobilized HuMab and isotype control antibodies under the same conditions as for the CD32b measurements.

biotinylated CD32bECDHis [10] = target: T1, biotinylated CD32bECDHis; test: competition ELISA, competitor 038
Procedure: as §1, §2

biotinylated CD32bECDHis [11] = target: T1, biotinylated CD32bECDHis; test: competition ELISA, competitor 063
Procedure: as §1, §2

biotinylated CD32bECDHis [12] = target: T1, biotinylated CD32bECDHis; test: competition ELISA, competitor 016
Procedure: as §1, §2

Binder | % residual binding (biotinylated CD32bECDHis [1]) | EC50 (CD32bECDHis [2]) | % residual binding (biotinylated CD32bECDHis [3]) | % residual binding (biotinylated CD32bECDHis [4]) | % residual binding (biotinylated CD32bECDHis [5]) | % residual binding (biotinylated CD32bECDHis [6]) | % residual binding (biotinylated CD32bECDHis [7]) | % residual binding (biotinylated CD32bECDHis [8]) | Kd (CD32bECDHis [9]) | koff (CD32bECDHis [9]) | kon (CD32bECDHis [9]) | % residual binding (biotinylated CD32bECDHis [10]) | % residual binding (biotinylated CD32bECDHis [11]) | % residual binding (biotinylated CD32bECDHis [12])
Antibody 038 (antibody, human IgG1, V domains shown, Human antibody; also called HuMab 038) VH: QVQLVESGGGVVQPGRSLRLSCAASGFTFSTYGMHWVRQAPGKGLEWVAVISHDGSDKYYADSVKGRFTISRDNSKNTLYLQMNSLRAEDTAVYYCARDQSIIETFDYWGQGTLVTVSS VL: EIVLTQSPATLSLSPGERATLSCRASQSVSSYLAWYQQKPGQAPRLLIYDASNRATGIPARFSGSGSGTDFTLTISSLEPEDFAVYYCQQRSNWGFTFGPGTKVDIKR | 354% | 0.62 nM | 350% | 5% | 308% | 351% | 333% | 310% | 1 nM | 0.00156 s⁻¹ | 1.54e+06 M⁻¹ s⁻¹ | 17% | 283% | 105%
Antibody 024 (antibody, V domains shown, also called HuMab 024) VH: QVQLVQSGAEVKKPGASVKVSCKASGYTFTSYGLSWVRQAPGQGLEWMGWISPYNGNTHYAQKLQGRVTMTTDTSTSTAYMDLRSLRSDDTAVYYCARDSAAHGMDVWGQGTTVTVSS VL: DIQMTQSPSSLSASVGDRVTITCRASQGISSWLAWYQQKPEKAPKSLIYAASSLQSGVPSRFSGSRSGTDFTLTISSLQPEDFATYYCQQYNSYPYTFGQGTKLEIKR | 6% | 0.75 nM | 17% | 98% | 56% | 15% | 69% | 43% | 0.9 nM | 0.00126 s⁻¹ | 1.44e+06 M⁻¹ s⁻¹ | 103% | 68% | 101%
Antibody 026 (antibody, V domains shown, Human antibody; also called HuMab 026) VH: QVQLVQSGAEVKKPGASVKVSCKASGYTFTSYGLSWVRQAPGQGLEWMGWISAYNGNTNYAQKLQGRVTMTTDTSTSTAYMDLRSLRSDDTAVYYCARDSAAHGMDVWGQGTTVTVSS VL: DIQMTQSPSSLSASVGDRVTITCRASQGISSWLAWYQQKPEKAPKSLIYAASSLQSGVPSRFSGSRSGTDFTLTISSLQPEDFATYYCQQYNSYPYTFGQGTKLEIKR | 0% | 0.51 nM | 1% | 146% | 4% | 1% | 29% | 4% | 1.3 nM | 0.00179 s⁻¹ | 1.4e+06 M⁻¹ s⁻¹ | 127% | 27% | 104%
Antibody 022 (antibody, V domains shown, also called HuMab 022) VH: QVQLVQSGAEVKKPGASVKVSCKASGYTFTSYGLSWVRQAPGQGLEWMGWISPYNGNTHYAQKLQGRVTMTTDTSTSTADMDLRSLRSDDTAVYYCARASAAHGMDVWGQGTTVTVSS VL: DIQMTQSPSSLSASVGDRVTITCRASQGISSWLAWYQQKPEKAPKSLIYAASSLQSGVPSRFSGSRSGTDFTLTISSLQPEDFATYYCQQYNSYPYTFGQGTKLEIKR | 7% | 0.75 nM | 14% | 96% | 42% | 13% | 64% | 35% | 0.7 nM | 0.00103 s⁻¹ | 1.48e+06 M⁻¹ s⁻¹ | 115% | 63% | 102%
Antibody 020 (antibody, V domains shown, also called HuMab 020) VH: QVQLVQSGGEVKKPGASVKVSCKTSGYTFTSYGISWVRQAPGQGLEWMGWISAYNGNTKYAQKLQGRLTMTTDTSTTTAYMELRSLRSDDTAVYYCARDSAAHGMDVWGQGTTVTVSS VL: DIQMTQSPSSLSASVGDRVTITCRASQGISSWLAWYQQKPEKAPKSLIYAASSLQSGVPSRFRGSGSGTDFTLTISSLQPEDFATYYCQQYNSYPYTFGQGTKLEIKR | 1% | 0.49 nM | 6% | 126% | 28% | 4% | 42% | 20% | 2.4 nM | 0.00363 s⁻¹ | 1.54e+06 M⁻¹ s⁻¹ | 120% | 42% | 105%
Antibody 028 (antibody, V domains shown, List 1 gives no VL for antibody 028; The VL is therefore uncertain; also called HuMab 028) VH: QVQVVQSGAEVKKPGASVKVSCKTSGYTFTSYGISWVRQAPGQGLEWMGWISAYNGNTKYAQKLQGRLTMTTDTSTTTAYMELRSLRSDDTAVYYCARDSAAHGMDVWGQGTTVSVSS VL: DIQMTQSPSSLSASVGDRVTITCRASQGISSWLAWYQQKPEKAPKSLIYAASSLQSGVPSRFSGSRSGTDFTLTISSLQPEDFATYYCQQYNSYPYTFGQGTKLEIKR | 2% | 0.48 nM | 6% | 125% | 32% | 7% | 51% | 24% | 1.3 nM | 0.00199 s⁻¹ | 1.58e+06 M⁻¹ s⁻¹ | 121% | 45% | 109%
